Laboratory results reported in PMC3087300 (Bioorganic & medicinal chemistry, 2009).
Read-outs that look alike come from different tables or passages of the source.

Molecular target: PSA (Homo sapiens, UniProt P07288)
Sequence (P07288 25-261): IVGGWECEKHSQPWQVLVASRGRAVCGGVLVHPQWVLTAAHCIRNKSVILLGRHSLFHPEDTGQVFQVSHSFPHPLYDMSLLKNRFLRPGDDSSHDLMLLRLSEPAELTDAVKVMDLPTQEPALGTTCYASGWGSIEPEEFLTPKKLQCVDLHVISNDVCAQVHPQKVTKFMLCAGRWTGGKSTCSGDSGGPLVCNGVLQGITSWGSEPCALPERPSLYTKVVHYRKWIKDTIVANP

(Re) SAAC-SSQn(boro)L [Compound 47]
Ki (P2-P3 screen boronic acids and PSA imaging agents, Table 2): 28.4 ± 2.1 nM | Ki (read-out: Ki for PSA, boronic acid inhibitors): 28 nM
